# No end group written: not given here.
# Assays:
# biotinylated BMP-2 = target: T1, biotinylated BMP-2 (Homo sapiens, UniProt P12643); assay: Amplified luminescent proximity homogenous assay (ALPHA); format: binding; conditions: chemically synthesized peptides, FIG. 6, normalized to molar concentration
# T1 construct: purchased R&D Systems 355-BM/CF
# T1 sequence (P12643 283-396): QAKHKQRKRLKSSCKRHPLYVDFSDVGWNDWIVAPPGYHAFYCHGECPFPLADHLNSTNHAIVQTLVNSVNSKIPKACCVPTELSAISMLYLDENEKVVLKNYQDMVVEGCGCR
# Method: Concentration dependent binding efficiency of BMP-2 to the affinity peptides was evaluated using an ALPHA assay.
# Diluted stock of biotinylated BMP-2 (R&D Systems, Minneapolis, Minn., Item number 355-BM/CF) at 3.3 micrograms/ml was prepared in 2× assay buffer (PBS, 0.01% Tween-80, 0.05% BSA). Chemically synthesized peptides having SEQ ID NO: 1, SEQ ID NO: 2, SEQ ID NO: 3, and SEQ ID NO: 6 were prepared using standard, automated Fluorenylmethyloxycarbonyl (Fmoc) solid phase peptide synthesis procedures. Each peptide solution for the assay was prepared from a 100 microgram/mL stock solution. The stock solution was serially diluted in ½ log steps in assay buffer resulting in peptide concentrations of 100, 33.3, 11.1, 3.70, 1.23, 0.41, 0.14, 0.046, 0.015, 0.0051, 0.0017 and 0.00056 micrograms/mL. Subsequently, serially diluted peptides were added to the corresponding wells containing the 10 microliters of the 3.3 microgram/mL solution of biotinylated BMP-2. Final assay test concentration for biotinylated BMP-2 was 0.825 micrograms/mL. Final peptide concentrations were 25, 8.3, 2.8, 0.93, 0.31, 0.10, 0.03, 0.01, 0.003, 0.001, 0.0003 and 0.0001 micrograms/mL. Next, Nickel (Ni)-acceptor and streptavidin (SA)-donor beads (Perkin Elmer, Waltham, Mass., Item number 6760619M) were diluted 1:100 in assay buffer prior to adding 20 microliters to each test well. Controls included BMP-2 alone in three different concentrations as well as SA beads with no peptide. The plate was made light-safe with an aluminum seal and shaken for 45 minutes on a table-top shaker at room temperature. The emission of the plate was read using a dual wavelength fluorometer (Perkin Elmer (Waltham, Mass.) Envision 2101 Multilabel Reader).
# The ALPHA data in FIG. 6 was normalized to molar concentration based on the molecular weights of the peptide sequences.
# [1] = tested on: MCHT-1/26 cells (mouse osteoblast cell line); assay: Alkaline phosphatase bioactivity assay in the presence of BMP-2; format: cell-based; conditions: peptide at 16, 160 and 800 nM, BMP-2 0-1000 ng/ml, 3 days, FIG. 7
# Method: In this experiment, we determined if the affinity peptides would interfere with the cell surface receptor binding to BMP-2 using mouse osteoblasts. The alkaline phosphatase (ALP) production was monitored the presence of BMP-2 with and without affinity peptides.
# Passage two MCHT-1/26 cells (mouse osteoblast cell line) were plated out in a 96 well plate the night before at 4500 cells/well. Cells were stimulated with serial dilution of BMP-2 in a range 0-1000 ng/ml in the presence or absence of 3 dilutions of peptide SEQ ID NO: 6 at 16, 160 and 800 nM. After incubation at 37° C. for 3 days, cells were lysed with lysis buffer (250 mM NaCl, 25 mM MgCl2 and 100 mM Tris, pH=8.0) overnight at 37° C. One third of the lysate was used for alkaline phosphatase assay with p-nitrophenylphosphate. The reaction was carried out at 37° C. for one to two hours. Next, the plate was read on an absorbance plate reader at a wavelength of 405 nm.
# [2] = target: human serum albumin (HSA) (Homo sapiens, UniProt P02768); assay: Cross-reactivity phage ELISA assay toward human serum albumin; format: binding; conditions: relative luminescence, N=2
# Method: (§1) In this experiment, we are confirming the binding of the phage identified in Example 1 to BMP-2.
# (§2) 96-well black ELISA plates were coated with streptavidin (Rows A through D), hIgG (Rows E and F) and human serum albumin (Rows G and H), at a concentration of 5 micrograms/mL in PBS. Plates were incubated overnight at 4° C. Plates were washed 3 times with TBST using a plate washer. To the streptavidin-coated wells in rows C and D, 100 microliters of a 4 micrograms/mL solution of biotinylated-BMP-2 (R&D Systems, Minneapolis, Minn., Item number 355-BM/CF), was introduced and allowed to sit at room temperature for 30 minutes. To all other wells, 100 microliters of PBS was introduced. The plates were again washed 3 times with TBST using the plate washer. The wells were then blocked with 250 microliters of a 3% dehydrated milk suspension in TBST and allowed to sit at room temperature for a minimum of 1 hour. Using phage concentrations determined by the phage titrations, dilutions of the phage stock solutions were performed in a separate 96-well plate to result in phage concentrations of 10^10, 10^9, 10^8, 10^7, 10^6 and 10^5 phage/well. […] The luminescence was read using a luminometer set with a gain of 150.
# (§3) The phage ELISA data in FIG. 3, FIG. 4 and FIG. 5 show relative luminescence and have an N value of 2. […]
# hIgG = assay: Cross-reactivity phage ELISA assay toward hIgG; format: binding, human; conditions: relative luminescence, N=2
# Method: as §1, §2, §3
# BMP-2 = target: T2, BMP-2 (Homo sapiens, UniProt P12643); assay: Mutant phage ELISA (serine scan); format: binding; conditions: FIG. 11A, FIG. 11B
# T2 construct: purchased R&D Systems 355-BM/CF
# T2 sequence (P12643 283-396): T1 sequence (P12643 283-396)
# Excerpt: Mutants of SEQ ID NO: 3 and SEQ ID NO: 6 were constructed by performing a serine scan where residues of the wild type were substituted with serine. […] SEQ ID NO: 24 through SEQ ID NO: 28 are mutants of SEQ ID NO: 3. SEQ ID NO: 29 through SEQ ID NO: 32 are mutants of SEQ ID NO: 6.
# The respective custom oligonucleotide was obtained from Integrated DNA Technologies. The oligonucletides were inserted into the pIX gene using standard protocols. First, the oligonucletides were phosphorylated using T4 polynucleotide kinase. Next, the phosphorylated oligonucletides were annealed to the ssDNA template. Using the Kunkel method, the annealed DNA was ligated using T4 DNA ligase and T7 DNA polymerase. The resultant DNA was isolated using isopropanol precipitation and a gel was run to confirm the reaction. Lastly, electro-competent E. coli cells were transformed with the purified DNA and were plated out onto 2xYT/Tet/Xgal agar plates and allowed to grow overnight to isolate single colonies. An aliquot of the transformed cells was allowed to grow overnight at 37° C. while shaking in 50 mL 2xYT/tet media. The phage were then PEG precipitated following the procedure in Example 1. A phage titration was performed to determine the concentration of phage for the ELISA assay as described in Example 2. ELISA assays were performed following the procedure in Example 3.
substance,measurement,setting,value
AGRDSFNLLTSSPLPST [SEQ ID NO: 6],ranking according to concentration-dependent binding to BMP-2,biotinylated BMP-2,SEQ ID NO: 6>SEQ ID NO: 3>SEQ ID NO: 2>SEQ ID NO: 1
same,effect on the ALP production of mouse osteoblasts,[1],minimal effect
AGYTSFALLKSAESTLP [SEQ ID NO: 3],ranking according to concentration-dependent binding to BMP-2,biotinylated BMP-2,SEQ ID NO: 6>SEQ ID NO: 3>SEQ ID NO: 2>SEQ ID NO: 1
"SEQ ID NO: 1: affinity peptide toward BMP-2 identified by pIX phage display, sequence in FIG. 1 (AGLPLQSMSRLSYDSLS)",ranking according to concentration-dependent binding to BMP-2,biotinylated BMP-2,SEQ ID NO: 6>SEQ ID NO: 3>SEQ ID NO: 2>SEQ ID NO: 1
"SEQ ID NO: 2: affinity peptide toward BMP-2 identified by pIX phage display, sequence in FIG. 1 (AGPPGPYIAASAFLALK)",ranking according to concentration-dependent binding to BMP-2,biotinylated BMP-2,SEQ ID NO: 6>SEQ ID NO: 3>SEQ ID NO: 2>SEQ ID NO: 1
"SEQ ID NO: 4: affinity peptide toward BMP-2 identified by pIX phage display, sequence in FIG. 1 (AGFRWWHTQPAHTLSYT)",cross-reactivity with HSA,[2],binds to both hIgG and HSA
same,cross-reactivity with hIgG,hIgG,binds to both hIgG and HSA
"SEQ ID NO: 33: a fragment of SEQ ID NO: 3, shown in FIG. 12 (AGYTSFALLKS)",binding to BMP-2 in mutant phage ELISA,BMP-2,important for binding to BMP-2
"SEQ ID NO: 34: a fragment of SEQ ID NO: 6, shown in FIG. 12 (AGRDSFNLLTS)",binding to BMP-2 in mutant phage ELISA,BMP-2,important for binding to BMP-2

# — patent publication US8629106B2, “Affinity peptides toward BMP-2” (Janssen Biotech, Inc., priority 2010, dated 2014)
